This assay addresses AUR1-mRFP (A. thaliana) (UniProt Q9M077). Nature of the assay: FRET or BRET. (In general: BRET reads energy transfer from a luciferase to a nearby fluorophore.)

Among the data in doi:10.1101/431791 are donor (GFP) fluorescence lifetime with AUR1-RFP values, retold here.

Sequence of UniProt Q9M077 (Q9M077 whole entry): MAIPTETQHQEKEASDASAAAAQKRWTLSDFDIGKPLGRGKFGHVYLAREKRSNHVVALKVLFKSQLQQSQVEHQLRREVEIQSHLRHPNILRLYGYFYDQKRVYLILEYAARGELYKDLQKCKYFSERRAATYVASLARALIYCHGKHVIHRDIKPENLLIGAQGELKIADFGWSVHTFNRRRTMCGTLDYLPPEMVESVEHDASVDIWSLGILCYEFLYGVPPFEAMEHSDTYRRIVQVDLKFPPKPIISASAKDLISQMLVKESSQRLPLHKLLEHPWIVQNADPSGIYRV

TPXL3-GFP (natural protein) registered a donor (GFP) fluorescence lifetime with AUR1-RFP of 1.9 ns. As for TPXL2-GFP (natural protein), the donor (GFP) fluorescence lifetime with AUR1-RFP was found to be 1.9 ns.
